Reference: patent US20150094271A1 (SAMSUNG ELECTRONICS, published 2015)
No end group written: not given here.

B1: HDMXNTD (N-terminal domain of HDMX, amino acid residues 1 to 132 of NP-001191100) (other, human, UniProt O15151 1-132, looked up)
chain: MTSFSTSAQCSTSDSACRISPGQINQVRPKLPLLKILHAAGAQGEMFTVKEVMHYLGQYIMVKQLYDQQEQHMVYCGGDLLGELLGRQSFSVKDPSPLYDMLRKNLVTLATATTDAAQTLALAQDHSMDIPS
notes: range 1-132; also called HDM4
B2: His6-HDM2NTD (other, human)
chain: HHHHHHMCNTNMSVPTDGAVTTSQIPASEQETLVRPKPLLLKLLKSVGAQKDTYTMKEVLFYLGQYIMTKRLYDEKQQHIVYCSNDLLGDLFGVPSFSVKEHRKIYTMIYRNLVVVNQQESSDSGTSVSEN
notes: range 1-125; Tag placed N-terminally by its name only
B3: GST-p53LZ2 (leucine zipper variant p53LZ2, inventive, tagged with GST) (designed binder)
chain: RMKQLEDKVGELLFSNYWLELEVARLKKLV
modifications: not fully specified (N-terminus); also: parallel homodimer, GST junction linker letters not given here
notes: not shown: GST carrier (pGEX-4T3 vector) and its junction linker
B4: His6-HDMXNTD (other, human)
chain: HHHHHHMTSFSTSAQCSTSDSACRISPGQINQVRPKLPLLKILHAAGAQGEMFTVKEVMHYLGQYIMVKQLYDQQEQHMVYCGGDLLGELLGRQSFSVKDPSPLYDMLRKNLVTLATATTDAAQTLALAQDHSMDIPS
notes: range 1-132; Tag placed N-terminally by its name only
B5: HDM2NTD (N-terminal domain of HDM2, amino acids 1 to 125 of NP-002383) (other, human, UniProt Q00987 1-125, looked up)
chain: MCNTNMSVPTDGAVTTSQIPASEQETLVRPKPLLLKLLKSVGAQKDTYTMKEVLFYLGQYIMTKRLYDEKQQHIVYCSNDLLGDLFGVPSFSVKEHRKIYTMIYRNLVVVNQQESSDSGTSVSEN
notes: range 1-125

How the values were obtained:
GST [1] = target: T1, GST (UniProt P08515 1-218 = GST); test: ELISA, HDMXNTD coated at 20 µg/ml, HRP anti-GST antibody, absorbance at 450 nm
T1 construct: Negative control in the pull-down; also called glutathione S-transferase tag alone (control)
T1 sequence (P08515 whole entry): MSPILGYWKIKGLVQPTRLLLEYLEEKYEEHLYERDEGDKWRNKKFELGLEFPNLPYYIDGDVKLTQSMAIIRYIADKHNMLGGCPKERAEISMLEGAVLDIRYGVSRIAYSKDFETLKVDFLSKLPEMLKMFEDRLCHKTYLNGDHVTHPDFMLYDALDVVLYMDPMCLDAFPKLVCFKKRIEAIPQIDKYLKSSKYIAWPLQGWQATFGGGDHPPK
Description: (§1) HDM2 or HDMX was diluted to a concentration of 20 μg/ml in a coating buffer (pH 9.6; 0.05M carbonate-bicarbonate buffer, pH 9.6 (Sigma-Aldrich)), applied to 96-well plates (Nunc, Maxisorp) and incubated overnight at 4° C. Then, the plates were treated with 300 μl of 3% skim milk w/PBS-T (room temperature, 3 hrs) to block the binding of other proteins. The 96-well plates were washed with 200 μL of PBS-T before each well was treated with serial dilutions of 0, 50, 100, 200, 400, 800, 1200, 1600, 2400, 3200, 4800, and 6400 nM of GST-WT p53, GST-p53LZ1, GST-p53LZ2, GST, pDIQ, and pMI.
(§2) After one hour of incubation, the plates were washed three times with 300 μL of PBS-T, and incubated at room temperature for 1 hr with 100 μL of an HRP conjugated-anti-GST antibody (Abcam, 1:2000). Thereafter, treatment with TMB substrate (Pierce, 100 μL) for 5 min developed a color. A stop solution (Pierce, 100 μL) was added, followed by reading absorbance at 450 nm on microwell reader (Molecular Device, Model: 340PC384).

GST [2] = target: T1, GST; test: GST pull-down on glutathione resin, 12% SDS-PAGE of the eluate
[3] = target: B5; test: ELISA, HDM2NTD coated at 20 µg/ml, HRP anti-GST antibody, absorbance at 450 nm
Description: as §1, §2

[4] = target: B1; test: ELISA, HDMXNTD coated at 20 µg/ml, HRP anti-GST antibody, absorbance at 450 nm
Description: as §1, §2

full-length HDM2 = target: T2, full-length HDM2 (human, UniProt Q00987 1-491); test: ELISA, full-length HDM2 coated at 20 µg/ml, HRP anti-GST antibody, absorbance at 450 nm
T2 construct: mature
Description: as §1, §2

GST [5] = target: T1, GST; test: ELISA, HDM2NTD coated at 20 µg/ml, HRP anti-GST antibody, absorbance at 450 nm
Description: as §1, §2

[6] = target: B1; test: ITC, p53LZ2 with HDMXNTD
[7] = target: B5; test: ITC, 0.5 mM p53LZ2 injected into 0.03 mM HDM2NTD, PBS pH 7.4, 18 °C
Description: Meanwhile, the binding of p53LZ2 to HDM2 and HDMX was evaluated by ITC (isothermal titration calorimetry).

[8] = target: B1; test: ITC (FIG. 6)

B1
binding result (GST [1]): no binding (tested: 6400 nM)

B2
binding result (GST [2]): no binding

B3
EC50 (read off the curve) [3]: ~200 nM | EC50 (read off the curve) [4]: ~200 nM | EC50 (read off the curve) (full-length HDM2): ~300 nM

B4
binding result (GST [2]): no binding

B5
binding result (GST [5]): no binding (tested: 6400 nM)

RMKQLEDKVGELLFSNYWLELEVARLKKLV (designed binder) [leucine zipper variant p53LZ2]
-TΔS [6]: 1.16 kcal/mol | N [6]: 0.65 | ΔH [6]: -9.66 kcal/mol | -TΔS [7]: 1.48 kcal/mol | Kd [7]: 17.8 nM | N [7]: 0.65 | ΔH [7]: -11.8 kcal/mol | Kd [8]: ~80 nM
